Results on one substance are retold here after PMC3060061.

The experiment has as its target PP2A core enzyme (A–C core dimer) (human) (UniProt P30153). The experiment is described as follows: ITC.
UniProt P30153, sequence (P30153 whole entry, chain 1 of 2): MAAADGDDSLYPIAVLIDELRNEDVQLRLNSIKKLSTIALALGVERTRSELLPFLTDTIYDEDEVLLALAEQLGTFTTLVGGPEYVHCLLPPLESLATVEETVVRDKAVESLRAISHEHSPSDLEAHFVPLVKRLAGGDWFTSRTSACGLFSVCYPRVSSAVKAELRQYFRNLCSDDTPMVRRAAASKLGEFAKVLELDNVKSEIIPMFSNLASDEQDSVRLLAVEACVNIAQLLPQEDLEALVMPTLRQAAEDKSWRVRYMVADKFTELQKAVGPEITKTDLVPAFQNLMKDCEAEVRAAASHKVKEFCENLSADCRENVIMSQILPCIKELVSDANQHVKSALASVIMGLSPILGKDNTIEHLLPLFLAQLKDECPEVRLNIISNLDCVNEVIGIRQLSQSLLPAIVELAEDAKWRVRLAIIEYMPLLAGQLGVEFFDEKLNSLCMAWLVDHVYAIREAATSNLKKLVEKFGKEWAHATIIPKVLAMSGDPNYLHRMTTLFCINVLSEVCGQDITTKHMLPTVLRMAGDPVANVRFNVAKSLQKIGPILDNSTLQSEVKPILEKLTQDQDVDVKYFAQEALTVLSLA
UniProt P30153, sequence (P67775 whole entry, chain 2 of 2, further chain): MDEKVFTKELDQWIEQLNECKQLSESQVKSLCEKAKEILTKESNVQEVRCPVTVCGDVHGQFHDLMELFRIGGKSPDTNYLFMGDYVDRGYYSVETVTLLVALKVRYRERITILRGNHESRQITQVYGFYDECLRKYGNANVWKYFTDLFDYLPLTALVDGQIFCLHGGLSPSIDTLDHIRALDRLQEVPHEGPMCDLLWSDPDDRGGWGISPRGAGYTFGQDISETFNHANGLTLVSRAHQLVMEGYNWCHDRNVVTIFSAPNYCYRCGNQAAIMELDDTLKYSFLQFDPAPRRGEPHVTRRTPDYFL

As for LCMT-1 T29V (enzyme), the fold increase of the binding affinity against wild type LCMT-1 came to 4 fold.
